# B1: TPR t1 (parent)
# chain: GACCAAUCUGCCCUCAGAGCUCGAGAACAUCUUCGGAUGCAGAGGAGGCAGGCUUCGGUGGCGCGAUAGCGCCAACGUCCUCAACCUCCAAUGCAUCCCACCACAUGAUGAUGCCUGAAGAGCCUUGGUUUUUUG
# Variants of: B1
# Assay: polymerase ribozyme fitness, log enrichment relative to wild type (log ratio); higher = more active; in vitro selection for triplet polymerase activity
# How it was run: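 Fitness measures genotype enrichment against wild-type enrichment on a logarithmic scale, with inverse-variance-weighted averaging of replicates. The logarithm is base 2, and genotypes were kept only with ≥10 input reads and ≥1 read per output in Illumina sequencing. The sequenced libraries came from one triplicate in vitro selection round, including frozen incubation at −7 °C, of PCR-built, transcribed mutant libraries of each subunit of a heterodimeric triplet polymerase ribozyme.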
row,Variant,polymerase ribozyme fitness (log ratio)
1,GACCAAUCUGCCCUCAGAGCUCGAGAAUAUCUUCGGAUGCAGAGGAGGCAGACUUCGGUGGCGCGAUAGCGCUAACGUCCUCAACCUCCAAUGCAUCCCACCACAUGAUGAUGCCUGAAGAGCCUUGGUUUUUUG [C28U G52A C73U],-2.19
2,GACCAAUCUGCCCUCAGAGCUCGAGAACAUCUUCGGAUGCAGAGGAGGCAGGCUUCGGUGGCGCGAUAGCGCCAACGCCGUCAACCUCCAAUGCAUCCCACCACAUGAUGAUGCCUGAAGGGCCUUGGUUUUUUG [U78C C80G A121G],-2.75
3,GACCAAUCUGCCCGCAGAGCUCGAGAACAUCUUCGGAUGGAGAGGAGGCAGGCUUCGGUGGCGCGAUAGCGCCAACGUCCUCAACUUCCGAUGCAUCCCACCACAAGAUGAUGCCUGAAGAGCCUUGGUUUUUUG [U14G C40G C86U A90G U106A],-3.96
4,GACCAAUCUGCCCUAAGAGCUCGAGAACAUCUUCGGAUGCAGAAUAGUCAGGCUUCGGUGGUGCGAUAGCGCUAACGGCCUCAACCUCCAAUGCAUCCCACCACAUGAUGAUGCCUGAAGAGCCUUGGUUUUUUG [C15A G44A G45U G48U C62U C73U U78G],-5.47
5,GACCAAUCUGCCCUCAGAGCUCGAGAACAUCUGCGGAUGCAGAGGAGGCAGGCUUCGGUGGCGCGAUAGCGCCAACGUCCUCAACCUCCAAUGCAUCCCACCACAUGAUGAUGCCUGAAGAGCCUUGGUUUUGUG [U33G U133G],-6.24
6,GACCAAUCUGCCCUCAGAGCUCGAGAACAUCUUCGGAUGCAGAGGAGGCAUGCUUCGGUGGCGCGAUAGCGCCAACGUCCUCAACCUCCAAUGCAUCCCACCACAUGAUGAUGCCUGAAGAGCCAUGGUUUUUUG [G51U U125A],-3.77
7,GACCAAUCUGCCCUCAGGGCUCGAGAACAUCUUCGGAUGCAGAGGAGGCAGGCUUCGGUGGCGCGAUAGCGCCAACGUCCUCAACCUCCAAUGCAUCCCACCACAUGAUGAUGCCUGAACAGCCUUGGUUUUUUG [A18G G120C],-0.633
8,GACCAAUCUGCCCUCAGAGCUCGAGAACAUCUUCGGAUGCAGAGGAGGGAGGCUUCGGUGGCGCGAUAGCGCCAACGUCCUCUACCUCCAAUGCAUCCCACCACAUGAUGAUGCCUGAAGAGCCUUGGUUUUUUG [C49G A83U],-0.66
9,GUGCAAUCUGCCCUCAGAGCUCGAGAACAUCUUCGGAUGCAGAGGAGGCAGGCUUCGGUGGCACGAUAGCGCCAACGUCCUCAACCUCCAAUGCAUCCCACCACAUGAUGAUGCCUGAAGAGCCUUGGUUUUUUG [A2U C3G G63A],-3.64
10,GACCAAUCUGCCCUCAGAGCUCGAGAACAUCUUAGGAUGCAGAGGAGGCAGGCUUCGGUGGCGCGAUAGCGCCAACGUCCUCAACCUCCAAUGCAUCCCACCACAUGAUGAUGCCUGAAGAGCCUUGCUUUUUUG [C34A G128C],-4.73
11,GACCAAUCUGCCCUCAGAGUUCGAGAACAUCUUCGGAUGCAGAGGAGGCAGGCUUCGGUGGCGCGAUAGCGUCAACGUCCUCAACCUCCAAUGCAUCCCACCACAUGAUGAUGCCUGAACAGCCUUGGUUUUUUG [C20U C72U G120C],-1.44
12,GACCAGUCUGCCCUCAGAGCUCGAGAACAUCUUCGGAUGUAGAGGAGGCAGGCUUUGGUGGCGCGAUAGCGCCAACGUCCUCAACCUCCAAUGCAUCCCACCACAUGAUGAUGCCUGAAGAGCCUUCGUUUUUUG [A6G C40U C56U G127C],-1.94
13,GACCAAUCUGCCCUCAGAGCUCGAGAACAUCUUCGGAUGCAGAGGAGGCAGGCUUCGGUGGCCCGAUAGCGCCAACGUCCUCAGCCUCCAAUGCAUCCCACCACAUGAUGAUGCCUGAAGAGCCUUGGUUUUUUG [G63C A84G],-1.73
14,GACCAUUCUGCCCUCAGAGCUCGAGAAGAUCUUCGGAUGCAGAGUAGGCAGGCUUGGGUGGCGAGAUAGCGCCAACGUCCUCAACCUCCAAUGCAUCCCACCACAUGAUGAUGCCUGAACAGCCUUGGUUUUUUG [A6U C28G G45U C56G C64A G120C],-7.29
15,GACCAAUCUGCCCCCAGAGCUCGAGAACAUCUUCGGAUGCAGAGAAGGCAGGCUUCGGUGGCGCGAUAGCGCCAACGUCCUCAACCUCCAAUGCAUCCCACCACAUGAUGAUGCCUGAAGAACCUUGGUUUUUUG [U14C G45A G122A],-3.73
16,GACCAAUCUGCCCCCAGAGAUCGAGAACAUCUUCGGAUGCAGAGGAGGCAGGCUUCGGUGGCGCGAUAGCGCCAACGUCCUCAACCUCCAAUGCAUCCCACCACAUGAUGAUGUCUGAAGAGCCUUGUUUUUUUG [U14C C20A C114U G128U],-5.92
17,GACCAAUCUGACCUCAGAGCUCGAGAACAUCUUGGGAUGCAGAGAAGGCAGGUUUCGGUGGCGCGAUAGGGCCAACGUCCUCAACCUCCAAUGCAUCCCAACACAAGAUGAUGCCUCAAGAGCCUUGGUUUUUUG [C11A C34G G45A C53U C70G C101A U106A G117C],-7.32
18,GACCAAUCUGCCCUCAGAGCUCGAGAAUAUCUUCGGAUGCAGAGGAGGCAGGCUUCGGUGGCGCGAUAGCGCCAACGUCCUCAACCUCCAAUGCAUCCCACCACUUGAUGACGCCUGAAGAGCCUUGGUUUUUUG [C28U A105U U112C],-4.9
19,GACCAAUCUGCCCUCAGAGCUCGAGAACAUCUUCGGAUGCAGAGGAGGCAGGCUUCGCUGGCGCGAUAGCGCCAACGUCCUCAACCUCCAAUGCAUCCCACAACAUGAUGAUGCCUGAAGAGCCUUGGUUUUUUG [G58C C102A],-2.66
20,GACCAAUCUGCCCUCAGAGCUCGAGAACAUCUUCGGAUGCAGAGGAGGCAGGUUUCGGUGGCGCGAUAGCGCUAACGUCCUCAACCUCCAAUGCAUCCCACCACAUGAUGAUGCCUGAAGAGCCUUGGUUUUUUG [C53U C73U],-0.178
21,GACCAAUCUGCCUUCAGAGCCCGAGAACAUCUUCGGAUGCAGAGGAGGCAGGCUUCGGUGGCGCGAUAGCGCCAACGUCUUCAACCUCCUAUGCAUCCCACCACAUGAUGAUGCCUGAAGAGCCUUGGUUUUUUG [C13U U21C C80U A90U],-1.82

row,Variant,polymerase ribozyme fitness (log ratio)
1,GACCAAUCUACCCUCAGAGCUCGAGAAGAUCUUCGGAUGCAGAGGAUGCAGGCUUCGGGGGCGCGAUAGCGCCAACGUCCUCAACCUCCAAUGCAUCCCACCACAUGAUGAUGCCUGAAGAGCCUUGGUUUUUUG [G10A C28G G47U U59G],-5
2,GACCAAUCUGCCCUCAGAGCUAGAGAACAUCUUCGGUUGCAGAGGAGGCAGGCUUCGGUGGCGCGAUAGCGCCAACGUCCUCAACCUCCAAUGCAUCCCACCACAUGAUGAUGCCUGAAGAGCCUUGGUUUUUUG [C22A A37U],-5.66
3,GACCAAUCUGCCCUCAGAGCUCGAGAACAUCUUCGGAUGCAGAGGAGGCAGGCUUCGGUGGCGCGAUAGCGCCAACGUCCUCAACCUCCAAUGCAACCGACCACAUGAUCAUGCCUGAAGAGCCUUGGUUUUUUG [U96A C99G G110C],-6.97
4,GACCAAUCUACCCUCAGAGUUCGAGAACAUCUUCGGAUGCAGAGGAGGCAGGCUUCGGUGGCGCGAUAGCGCCAACGUCCUCAACCUCCAAUGCAUCCCACCACAUGAUGAUGCCUGAAGAGCCUUGGUUUUUUG [G10A C20U],-1.18
5,GACCAAUCUGCCCUCAGAGCUCGAGAACAUCUUCGGAUGUAGAGGAGGCAGGCUUCGGUGGCGCGAUAGCGCCAACGUCCUCAACCUCCAAUGCAUUCCACCACAAGAUGAUGCAUGAAGAGCCUUGGUUUUUUG [C40U C97U U106A C115A],-1.86
6,GACCAAUCUGCCCUCAGAGCUCGAGAACAUCUUCGGAUGCAUAGGAGGCAGGCUUCGGUGGCGCGAUAGCGCCAACGUCUUCAACCUCCAAUGCAUCCCACCACAUGAUGAUGCCUGAAGAGCCUUGGUUUUUUG [G42U C80U],-2.21
7,GACCAAUCUGCCCUCAGAGCUCGAGAACAUCUUCGGAUGCAGAGGAGGCAGGCUUCGGUAGCGCGAUAGCGCCAACGUCCUCAACCUCCAAUGCAUCCCACCAUAUGAUGAUGCCUGAAGAGCCUUGGUUUUUUG [G60A C104U],0.164
8,GACCAAUCUGCCCUCAGAGCUCGAGAACAUCUUCGGAUGCAGAGGAGGCAGGCUUCGGUGGUGCGAUAGCGCCAACGUCCUCAACUUCCAAUGCAUCCCUCCACAUGAUAAUGCCUGAAGAGCCUUGGGUUUUUG [C62U C86U A100U G110A U129G],-4.42
9,GACGAAUCUGCCCUCAGAGCUCGAGAACAUCUUCGGUUGCAGAGGAGGCAGGCUUCGGUGGCGCGAUAGCGCCAACGUCCUCAACCUCCAAUGCAUCCCACCACAUGAUGAUGCCUGAAGAGCCUUGGUUUUUUG [C4G A37U],-1.82
10,GACCAAUCUGCUCUCAGAGCUCGAGAACAUCUUCGGAUGCAGAGGAGGCAGGCUUCGGUGGCGAGAUAGCGCCAACGUCCUCAACCUCCAAUGCAUCCCACCACAUGAUGAUGCCUGAAGAGCCUUGGUUUUUUG [C12U C64A],-5.62
11,GACCAAUCUGCCCUCAGAGCUCGAGAACAUCUUCGGAUGCAGAGGAGGCAGGCUUCGGUGGCGCGAUAGUGCCAACGUCCUCAACCUCCGAUGCAUCCCAACACAUGAUGAUGCCUGAAGAGACUUGGUUUUUUG [C70U A90G C101A C123A],-1.13
12,GACCAUUCUGCCCUCAGAGCUCGAGAACAUCUUCGGAUGCAGAGGAGGCAGCCUUUGGUGGCGCGAUAGCGCCAACGUCGUCAACCUCCAAUGCAUCCCACCACAUGAUGAUGCCUGAAGGGCCUUGGUUUUUUG [A6U G52C C56U C80G A121G],-1.97
13,GACCAAUCUGCCCUCAGAGCUCGAGAACAUCUUCGGAUGCAGAGGAGGCAGGCUUCGGAGGCGCGAUAGCGCCAACGUCCUAAACCUCCAAUCCAUCCCACCACAUGAUGAUGCCUGAAGAGCCUUGGUUUUUUG [U59A C82A G93C],-0.829
14,GACCAAUCUGCCCUCAGAGCUCGAGAACAUCUUCGGAUGCAGAGGAGGCAGGCUUCGGUGGCGCGAUAGCGCAAACGUCCUCAACCUCCAAUGCAUCCCACCACAUGAUGAUGACUGAAGAGCCUUGGUUUUUUG [C73A C114A],-1.84
15,GACCAAUCUGCCCUCAGAGCUCGAGAACAUCUUCGGAUGCAGAGGAGGCAGGCUUCGGUGGCGCGAUAGCGCCAACCUCCUCAACCUCCAAUGCAUCCCACCACAUGAUGAUGACUGAAGAGCUUUGGUUUUUUG [G77C C114A C124U],-2.41
16,GACCAAUCUGCACUCAGAGCUCGAGAACAUCUUCGGAUGCAGAGGAGGCAGGCUUCGGUGGCGCGAUAUCGCCAACGUCCUCAACCUCCAAUGCAUCCCACCACAUGAUGAUGCCUGAAGAGCCUUGGUUUUUUG [C12A G69U],-0.288
17,GACCAAUCUGCCCUCAGAGCUCGAGAACAUCUUCGGAUGCAGAGGAGGCAGGCUUCGCUGGCGCGAUAGCGCCAACGUCCUCAAACUCCAAUGCAUCCCACCACAUGAUGAUGCCUGAAGAGCCUUGGUUUUUUG [G58C C85A],0.0552
18,GACCAAUCUGCCCUCAGAGCUCGAGAACAUCUUCGGAUGCAGAGGAGGCAGGCGUCGGUGGCGCGAUAGCGCCAACGUCCUCAACCUCCAAUGCAUCCCACCACAUGAUGAAGCCUCAAGAGCCUUGGUUUUUUG [U54G U112A G117C],-4.03
19,GACCAAUCUGCCCUCAGAGCUCGAGAACAUCUUCGGAUGCAGAGGAGGCAGGCUUCGGUGGCACGAUAGCGCCAACGUACUCAACCUCCAAUUCAUCCCACCACAUGAUGAUGCCUGAAGAGCCUUGGUUUUUUG [G63A C79A G93U],-4.19
20,GACCAAUCUGCCCUCAGAGCUCGAGAACAUCUUCGGAUGCAGAGGAGGCAGGCUUCGGUUGCGCGAUAGCGCCAACGUCCUCAACCUCCAAUGCAUCCCAACACAUGAUGAUGCCUGAAGAGGCUUGGUUUUUUG [G60U C101A C123G],0.75
21,GACCAAUCUGCCCUCAGAGCUCGAGAACAUCUUCGAAUGCAGCGGAGGCAGGCUUCGGUGGCGCGAUAGCGCCAACGUCCUCAACCUCCAAUGCAUCCCACCACAUGAUGAUGCAUGAAGAGCCUUGGUUUUUUG [G36A A43C C115A],-3.76

# Source: the RNAGym collection of RNA variant scans (doi:10.1073/pnas.2313332121)
